Numbering of substitutions follows the chain as printed. Read-outs that look alike come from different tables or passages of the source. A value given as a limit tells only on which side of the number the result lay.

The values below come from PMC7566471, “A new perspective on the interaction between the Vg/VGLL1-3 proteins and the TEAD transcription factors” (Scientific Reports, 2020).

Experiment [1] has as its target TEAD4 (protein of the SPR and TR-FRET assays) (human). As to the kind of experiment: SPR; peptides against TEAD4; Kd at equilibrium; peptide stocks in DMSO or in acetonitrile:(water + 1 mM TCEP).
Experiment [2] shares this target. As to the kind of experiment: FRET or BRET; TR-FRET assay with TEAD4; potency (IC50) of peptides; methodology in Fig. S8. A general note: Bioluminescence resonance energy transfer reports proximity on the nanometre scale.
The target in experiment [3] is N-terminally V5-tagged Asp272Ala^TEAD4 (full length) (human) (UniProt Q15561). As to the kind of experiment: co-IP; V5-TEAD4 and (FLAG)3-VGLL2 co-transfected into HEK293FT YAP/TAZ double knockout cells; V5 immunoprecipitation, anti-FLAG Western blot; similar results in wild-type HEK293FT cells.
For experiment [4], the target named is TEAD4 (Homo sapiens) (UniProt Q15561). The settings on record: cited from earlier work.
Experiment [5] concerns the target wt^Sd (Scalloped 223–440), N-biotinylated-Avitagged (Drosophila melanogaster) (UniProt P30052). As to the kind of experiment: SPR; N-biotinylated-Avitagged Sd (wild type or mutant) immobilised on sensor chips; Yki or Vg fragment as analyte; Kd at equilibrium by a standard SPR method. (In general: In SPR one partner is held on a chip, and binding of the other changes the refractive index at the surface.)

Experiment [6] addresses T1, wt^Sd (Scalloped 223–440), N-biotinylated-Avitagged (Drosophila melanogaster, UniProt P30052 223-440, biotin on the Avi-tag; acylated (incubated with myristoyl coenzyme A; purified as a mixture of acylated and non-acylated proteins)).
T1 construct: Immobilised on SPR sensor chips by the biotinylated Avi-tag; also called Sd^223–440; source: E. coli BL21(DE3) with a BirA plasmid, purified (HisTrap, HRV 3C cleavage, Superdex 75); not shown: His6, N-terminal, cleaved; Avi-tag, N-terminal, kept
T1 sequence (looked up): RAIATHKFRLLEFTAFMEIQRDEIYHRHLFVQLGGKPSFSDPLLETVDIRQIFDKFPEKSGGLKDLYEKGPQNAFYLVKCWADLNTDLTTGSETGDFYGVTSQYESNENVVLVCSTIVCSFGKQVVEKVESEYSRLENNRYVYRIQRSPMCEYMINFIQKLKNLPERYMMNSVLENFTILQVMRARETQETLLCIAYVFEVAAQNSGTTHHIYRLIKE
Described as above. The settings on record: both partners purified.

For experiment [7], the target named is T1, wt^Sd (Scalloped 223–440), …. As to the kind of experiment: SPR; N-biotinylated-Avitagged Sd (wild type or mutant) immobilised on sensor chips; Kd by kinetic titration (Kd^KT). The settings on record: both partners purified.
Experiment [8] deals with T2, Asp276Ala^Sd (Scalloped 223–440), biotinylated Avi-tagged (Drosophila melanogaster, UniProt P30052 223-440, Asp276Ala, biotin on the Avi-tag; incubated with myristoyl coenzyme A).
T2 construct: Scalloped (Sd), Drosophila melanogaster, UniProt P30052, amino acids 223–440, with Asp276Ala; also called Asp246Ala^Sd (as printed in two sentences); source: E. coli BL21(DE3) with a BirA plasmid, purified (HisTrap, HRV 3C cleavage, Superdex 75); not shown: His6, N-terminal, cleaved; Avi-tag, N-terminal, kept
T2 sequence (looked up): T1 sequence (looked up) with D54A
Described as above. The settings on record: both partners purified.

Experiment [9] addresses T3, Tyr435His^Sd (Scalloped 223–440), biotinylated Avi-tagged (Drosophila melanogaster, UniProt P30052 223-440, Tyr435His, biotin on the Avi-tag; incubated with myristoyl coenzyme A).
T3 construct: Scalloped (Sd), Drosophila melanogaster, UniProt P30052, amino acids 223–440, with Tyr435His; source: E. coli BL21(DE3) with a BirA plasmid, purified (HisTrap, HRV 3C cleavage, Superdex 75); not shown: His6, N-terminal, cleaved; Avi-tag, N-terminal, kept
T3 sequence (looked up): T1 sequence (looked up) with Y213H
The experiment is described as above. The settings on record: both partners purified.

Experiment [10] addresses TEAD4 (protein of the SPR and TR-FRET assays) (human). As to the kind of experiment: SPR; peptides against TEAD4; Kd at equilibrium; peptide stocks in DMSO or in acetonitrile:(water + 1 mM TCEP). This is another data set of the same source.
The target of experiment [11] is T2, Asp276Ala^Sd (Scalloped 223–440), …. As to the kind of experiment: SPR; N-biotinylated-Avitagged Sd (wild type or mutant) immobilised on sensor chips; Yki or Vg fragment as analyte; Kd at equilibrium by a standard SPR method. The settings on record: both partners purified.
Experiment [12] concerns the target T3, Tyr435His^Sd (Scalloped 223–440), …. Described as above. To be noted: both partners purified.

TEAD4 (Homo sapiens), sequence (Q15561 whole entry, the tested form may be a part): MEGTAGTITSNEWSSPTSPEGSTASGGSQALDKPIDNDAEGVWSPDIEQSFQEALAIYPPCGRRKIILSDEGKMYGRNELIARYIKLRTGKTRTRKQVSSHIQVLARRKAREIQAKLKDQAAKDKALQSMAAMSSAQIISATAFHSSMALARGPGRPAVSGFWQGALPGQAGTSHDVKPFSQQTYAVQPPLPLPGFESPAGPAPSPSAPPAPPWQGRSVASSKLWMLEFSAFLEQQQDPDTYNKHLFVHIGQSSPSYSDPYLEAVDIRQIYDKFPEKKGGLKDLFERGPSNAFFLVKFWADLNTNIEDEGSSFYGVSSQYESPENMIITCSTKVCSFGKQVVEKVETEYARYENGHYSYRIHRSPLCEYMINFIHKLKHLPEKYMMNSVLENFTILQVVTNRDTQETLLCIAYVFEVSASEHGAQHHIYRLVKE
N-terminally V5-tagged Asp272Ala^TEAD4 (full length) (human), sequence (Q15561 whole entry D272A): as the sequence (Q15561 whole entry, the tested form may be a part) above, with D272A counted along it

Regarding “Flyman (hybrid peptide: β-strand:α-helix and Ω-loop of VGLL2 connected by the linker from Vg)”, the Kd in [1] was 4.3 nM. In experiment [2], “YAP^85–99 (from UniProt P46937 85-99) (peptide)” displayed an IC50 of 98000 nM. Besides, in [1], the Kd worked out at 58000 nM. “(FLAG)3-delΩ^VGLL2 (full length with the Ω-loop deleted) (from UniProt Q8N8G2-1 1-317) (natural protein)”: the fold reduction of co-immunoprecipitation against wt^TEAD4 with wt^VGLL2 in experiment [3] was found to be 2 fold. Take VGLL1 27-51 (from UniProt Q99990): the Kd in experiment [4] was 160 nM.

In the case of “Vg^298–337 (from UniProt Q26366 298-337) (peptide)”, the dissociation constant (Kd) in [5] stood at 61 nM. Molecule Ac-PMSQRSFPASFWNSA-NH2 [VGLL2^135–149] showed an IC50 in experiment [2] of 133000 nM.

B1: VGLL2^85–149 (peptide)
peptide: Ac-CVLFTYFQGDISSVVDEHFSRALSQPSSYSPSCTSSKAPRSSGPWRDCSFPMSQRSFPASFWNSA-NH2
For the molecule B1, in experiment [2], the 50% inhibitory concentration (IC50) turned out to be 6.3 nM. Also, the equilibrium dissociation constant (Kd) in experiment [1] worked out at 34 nM.

B2: Yki^41–79 (peptide, UniProt Q45VV3 41-79, looked up)
peptide: Ac-TDDNLQALFDSVLNPGDAKRPLQLPLRMRKLPNSFFTPP-NH2
notes: Yorkie (Yki), Drosophila melanogaster, UniProt Q45VV3, residues 41–79 (lacks the putative β-strand); source: synthetic peptide, bought: Biosynthan
On to B2, for which the Kd in [6] was 69 nM.

B3: Vg^263–382 (domain or fragment, Drosophila melanogaster, UniProt Q26366 263-382, looked up)
chain: ETPMGSGGGGLAGSGQGQAQYLSASCVVFTNYSGDTASQVDEHFSRALNYNNKDSKESSSPMSNRNFPPSFWNSNYVHPIPAPTHHQVSDLYGTATDTGYATDPWVPHAAHYGSYAHAAH
notes: Vestigial (Vg), Drosophila melanogaster, UniProt Q26366, amino acids 263–382; also called Vestigial 263–382; source: E. coli (BL21(DE3) and NiCo21(DE3) are both named), purified (HisTrap, HRV 3C cleavage, Superdex 75); not shown: His-tag, N-terminal, cleaved; strep-tagII, N-terminal, cleaved; rubredoxin, N-terminal, cleaved
As for B3, the dissociation constant (Kd) in experiment [7] was 0.38 nM; in [8] it was 5.5 nM; in [9], 24 nM; in [6] it was below 2 nM. Ac-PMSNRNFPPSFWNSN-NH2 [Vg^323–337] returned an IC50 in experiment [2] of 160000 nM.

B4: Vg^288–337 (peptide, UniProt Q26366 288-337, looked up)
peptide: Ac-CVVFTNYSGDTASQVDEHFSRALNYNNKDSKESSSPMSNRNFPPSFWNSN-NH2
notes: source: synthetic peptide, bought: Biosynthan
With B4, the Kd was 3.1 nM in experiment [1], 4.1 nM in experiment [10], 1.6 nM in experiment [7] and below 2 nM in [6].

B5: Yki^30–146 (domain or fragment, Drosophila melanogaster, UniProt Q45VV3 30-146, looked up)
chain: SNNLVVRVNQDTDDNLQALFDSVLNPGDAKRPLQLPLRMRKLPNSFFTPPAPSHSRANSADSTYDAGSQSSINIGNKASIVQQPDGQSPIAAIPQLQIQPSPQHSRLAIHHSRARSS
notes: Yorkie (Yki), Drosophila melanogaster, UniProt Q45VV3, amino acids 30–146; also called Yorkie 30–146; source: E. coli (BL21(DE3) and NiCo21(DE3) are both named), purified (HisTrap, HRV 3C cleavage, Superdex 75); not shown: His-tag, N-terminal, cleaved; strep-tagII, N-terminal, cleaved; rubredoxin, N-terminal, cleaved
Take B5: the Kd in [7] is 13 nM; in experiment [6], 13 nM; in [11], 5000 nM; in experiment [12] it was 13000 nM. In turn, Ac-CVLFTYFQGDISSVVDEHFSRALS-NH2 [VGLL2^85–108] had an IC50 in [2] of 340 nM. Moreover, the Kd in experiment [1] turned out to be 590 nM.

B6: Yki^31–79 (peptide, UniProt Q45VV3 31-79, looked up)
peptide: Ac-NNLVVRVNQDTDDNLQALFDSVLNPGDAKRPLQLPLRMRKLPNSFFTPP-NH2
notes: Yorkie (Yki), Drosophila melanogaster, UniProt Q45VV3, residues 31–79; only Yki 30–146 and Vg 263–382 are described as recombinant; source: synthetic peptide, bought: Biosynthan
Take B6: the Kd in experiment [6] was determined as 23 nM.

B7: Vg^288–311 (peptide, UniProt Q26366 288-311, looked up)
peptide: Ac-CVVFTNYSGDTASQVDEHFSRALN-NH2
notes: Vestigial (Vg), Drosophila melanogaster, UniProt Q26366, residues 288–311 (TONDU domain); also called TONDU domain of Vg; β-strand:α-helix region of Vg; source: synthetic peptide, bought: Biosynthan
B7: the equilibrium dissociation constant (Kd) in experiment [6] amounted to 291 nM.

A word on the Kd: it is the concentration at which binding is half-saturated. By IC50 is commonly meant the concentration that inhibits the measured activity by half.
